Assays:
[1] = target: N2 A/HongKong/2671/2019 N245S (Influenza A virus (H3N2))
[2] = target: N2 A/Tanzania/205/2010 S245N 247T (Influenza A virus (H3N2))
[3] = target: N2 A/Switzerland/8060/2017 N245S (Influenza A virus (H3N2))

1G01 Fab
Kd [1]: 375 nM
Kd [2]: < 0.02 nM
Kd [3]: 398 nM
